Reference: the RNAGym collection of RNA variant scans (doi:10.7554/elife.80360)

B1: HDV Ribozyme (parent)
chain: GGCCGGCAUGGUCCCAGCCUCCUCGCUGGCGCCGGCUGGGCAACAUUCCGAGGGGACCGUCCCCUCGGUAAUGGCGAAUGGGACCCA

Variants of: B1
Assay: self-cleavage, relative activity (ratio to wild type); higher = more cleavage; co-transcriptional

With C4U G38U as the variant, how does the self-cleavage read?
Its self-cleavage is 0.13.

With C19U U46C as the variant, how does the self-cleavage read?
Its self-cleavage is 0.213.

Which self-cleavage does the source give for U37C G76U here?
The self-cleavage was 1.3.

Which self-cleavage does the source give for C3G A78C here?
Its self-cleavage is 0.134.

Which self-cleavage does the source give for C63A A78C here?
The self-cleavage was 0.108.

For G10A U72A, which self-cleavage is on record?
The self-cleavage was 0.485.

With A16U A83U as the variant, how does the self-cleavage read?
Its self-cleavage is 0.584.

Which self-cleavage does the source give for U12G U65A here?
The self-cleavage was 1.06.

With U12C G40C as the variant, how does the self-cleavage read?
The self-cleavage was 0.0405.

For G38A U47A, which self-cleavage is on record?
The self-cleavage was 0.0594.

For C48G G82C, which self-cleavage is on record?
The self-cleavage was 0.111.

For G10A A77C, which self-cleavage is on record?
The self-cleavage was 0.237.

Which self-cleavage does the source give for U27C G34C here?
The self-cleavage was 0.106.

For A45G C64A, which self-cleavage is on record?
The self-cleavage was 0.658.

With C13A A45G as the variant, how does the self-cleavage read?
The self-cleavage was 0.158.

For C44G A45C, which self-cleavage is on record?
The self-cleavage was 0.578.

Which self-cleavage does the source give for G6A C7G here?
Its self-cleavage is 0.208.

For C3G U69G, which self-cleavage is on record?
Its self-cleavage is 0.658.

Which self-cleavage does the source give for G1U G38U here?
Its self-cleavage is 0.295.

With A16C C57A as the variant, how does the self-cleavage read?
The self-cleavage was 0.852.

Which self-cleavage does the source give for G10A C84G here?
Its self-cleavage is 0.591.

With G35A C48U as the variant, how does the self-cleavage read?
The self-cleavage was 0.499.

With C30U C66U as the variant, how does the self-cleavage read?
The self-cleavage was 0.544.

Which self-cleavage does the source give for C22U U65C here?
Its self-cleavage is 0.78.

For G17A C75G, which self-cleavage is on record?
The self-cleavage was 0.0773.

With G5U C33G as the variant, how does the self-cleavage read?
The self-cleavage was 0.65.

With G53C C84A as the variant, how does the self-cleavage read?
The self-cleavage was 0.76.

With A43C C64G as the variant, how does the self-cleavage read?
Its self-cleavage is 0.415.

For A16C G53C, which self-cleavage is on record?
Its self-cleavage is 0.475.

With U20A A56C as the variant, how does the self-cleavage read?
The self-cleavage was 0.0519.

For C48G A71G, which self-cleavage is on record?
Its self-cleavage is 0.962.

With G2U C57G as the variant, how does the self-cleavage read?
The self-cleavage was 0.109.

Which self-cleavage does the source give for G6U C44U here?
Its self-cleavage is 0.162.

For C57U C61A, which self-cleavage is on record?
Its self-cleavage is 1.32.

Which self-cleavage does the source give for G11A G54U here?
The self-cleavage was 0.391.

With C21A G81A as the variant, how does the self-cleavage read?
Its self-cleavage is 0.0647.

For U9G U20C, which self-cleavage is on record?
The self-cleavage was 0.

With A56G G80A as the variant, how does the self-cleavage read?
Its self-cleavage is 0.32.

For A16U G34C, which self-cleavage is on record?
The self-cleavage was 0.369.

Which self-cleavage does the source give for C18A G67U here?
The self-cleavage was 0.117.

With C24A U72A as the variant, how does the self-cleavage read?
Its self-cleavage is 0.271.

With U47A C63U as the variant, how does the self-cleavage read?
The self-cleavage was 1.

With C22A A42U as the variant, how does the self-cleavage read?
Its self-cleavage is 0.111.

Which self-cleavage does the source give for C4U C7A here?
The self-cleavage was 0.104.

With U12C G55C as the variant, how does the self-cleavage read?
The self-cleavage was 0.447.

With C48G G52A as the variant, how does the self-cleavage read?
The self-cleavage was 0.86.

For G6C C32A, which self-cleavage is on record?
Its self-cleavage is 0.482.

For C30U A42C, which self-cleavage is on record?
Its self-cleavage is 0.0282.

With C26A G82A as the variant, how does the self-cleavage read?
Its self-cleavage is 0.721.

Which self-cleavage does the source give for C30G G73A here?
The self-cleavage was 0.0455.

For G10C U47C, which self-cleavage is on record?
Its self-cleavage is 0.332.

For C41G C62U, which self-cleavage is on record?
Its self-cleavage is 0.815.

For G6U C49G, which self-cleavage is on record?
Its self-cleavage is 0.306.

With G5U C7G as the variant, how does the self-cleavage read?
The self-cleavage was 0.104.

With G2A G35C as the variant, how does the self-cleavage read?
The self-cleavage was 0.0326.

With U20A U79C as the variant, how does the self-cleavage read?
The self-cleavage was 0.

With G25U G35A as the variant, how does the self-cleavage read?
Its self-cleavage is 0.0415.

With C44G A83G as the variant, how does the self-cleavage read?
The self-cleavage was 0.233.

With G10C A45U as the variant, how does the self-cleavage read?
The self-cleavage was 1.11.

With U47G U65A as the variant, how does the self-cleavage read?
Its self-cleavage is 0.942.

For G1C C18U, which self-cleavage is on record?
The self-cleavage was 0.0437.

For G6A U72G, which self-cleavage is on record?
The self-cleavage was 0.246.

With C3A G38U as the variant, how does the self-cleavage read?
The self-cleavage was 0.0471.

With A77G C85A as the variant, how does the self-cleavage read?
Its self-cleavage is 0.851.

With U9C G34U as the variant, how does the self-cleavage read?
The self-cleavage was 0.178.

With G29A G73A as the variant, how does the self-cleavage read?
Its self-cleavage is 0.143.

For C26A U47A, which self-cleavage is on record?
The self-cleavage was 0.731.

Which self-cleavage does the source give for C13U G81C here?
The self-cleavage was 0.249.

For U20A A43U, which self-cleavage is on record?
Its self-cleavage is 0.0386.

For C4G C36G, which self-cleavage is on record?
Its self-cleavage is 0.0268.

For G11C G53U, which self-cleavage is on record?
The self-cleavage was 0.415.

For U60A A71U, which self-cleavage is on record?
The self-cleavage was 1.03.

For A16U A78G, which self-cleavage is on record?
Its self-cleavage is 0.332.

Which self-cleavage does the source give for C13G A71G here?
Its self-cleavage is 0.

Which self-cleavage does the source give for G17U G38C here?
Its self-cleavage is 0.0997.

Which self-cleavage does the source give for G28U C85A here?
Its self-cleavage is 0.203.

With G2U G82U as the variant, how does the self-cleavage read?
Its self-cleavage is 0.0171.

With A70U G73C as the variant, how does the self-cleavage read?
Its self-cleavage is 0.332.

Which self-cleavage does the source give for A51G G76A here?
The self-cleavage was 0.91.

With A71G A83C as the variant, how does the self-cleavage read?
The self-cleavage was 0.415.

With G5C U60A as the variant, how does the self-cleavage read?
The self-cleavage was 0.166.

Which self-cleavage does the source give for G5C U60C here?
Its self-cleavage is 0.

Which self-cleavage does the source give for C14U G73U here?
The self-cleavage was 0.309.
